Assay: yeast display, Sf9 membrane polyspecificity reagent, FACS + sequencing; frameworks hold sequencing errors
In short: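 A nanobody's polyreactivity label depends on the gate it was sorted from. Yeast display cells were stained with 10% biotinylated, detergent-solubilized Sf9 membrane reagent for 1 hour at 4 °C, enriched on streptavidin microbeads and sorted by FACS. The low and high (top ~1%) gates were set on anti-HA fluorescence for expression and streptavidin fluorescence for reagent binding.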

Sequence: QVQLVESGGGLVQAGGSLRLSCAASGFTFALYAMGWYRQAPGKEREVVASIDNGVSTNYADSVKGRFTISRDNAKNTVYLQMNSLKPEDTAVYYCAKGPGYGFYKLLSYDSWGQGTQVTVSS
- polyreactivity (PSR sort gate): low polyreactivity

Sequence: QFQLVQSGGGLVQAGGSLRLSCAASGFILEPNAVGWYRQAPGKERELVATISYSGGGTYYADSVKGRFTISRDNAKNTVYLQLNCLKPEDTAVYYCAVDWYYYVWWYDYWGQGTHVTVSS
- polyreactivity (PSR sort gate): high polyreactivity

Sequence: QGQLVESGGGLVQAGGSLRLSCAASGRIVGPNTMGWSRQAPGKERELVAAISSGGGTYYADSVKGRFTISRDNAKNTVYLQMNSLKPEDTAVYYCAADYTTLKLYYWFDYWGQGTHVTVSS
- polyreactivity (PSR sort gate): low polyreactivity

Sequence: QVQLVESGGGLVQAGGSLRLSCAASGRTFEHYVMGWYRQAPGKERELVAAISNSGDTTFYADSVKGRFTISRDNAKNTVYFQMNSLKPEDTAVYYCNADSYWHWGEWLYAPYDYWGQGTQVTVSS
- polyreactivity (PSR sort gate): low polyreactivity

Sequence: QVQLVESGGGLVQAGGSLRLSCAASGFIFRRNAMGWYRQAPGKERELVASIRSGGSTKYADSVKGRFTISRDNAKNTVYLQMNSLKPEDTAVYYCAKDRYHISFFYQMEYWGQGTQVTVSS
- polyreactivity (PSR sort gate): low polyreactivity

Sequence: QVQLVESGGGLVQAGGSLRLSCAASGSTLWYNAMGWYRQAPGKERELVASITSDGGSSTYADSVKGRFTISRDNAKNTVYLQMNSQKPEDTAVYYCAADWPIVQYDYWGQGTQVTVSS
- polyreactivity (PSR sort gate): low polyreactivity

Sequence: QVQLVESGGGLVQAGGSLRLSCAASGSIFSYYVKGWYRQAPGKERELVAVITDRGGRTYYADSVKGRFTISRDNAKNPVYLQMNSLKPEDTAVYYCNKYIRRYLIYGSWGQGTQVTVSS
- polyreactivity (PSR sort gate): high polyreactivity

Sequence: QVQLVESGGGLVHAGGSLRLSCAASGSIFQYNAMGWYRQAPWKERELVAAITSTGDTNYADSVKGRFTISRDNAKNTVYLQMNSLKPEDTAVYYCAADVYGTVRRVGWYYVGEGYDYWGQGTQVTVSS
- polyreactivity (PSR sort gate): low polyreactivity

Sequence: QVQLVESGGGLVQAGGSLRLSCAASGFIFRSYAMGWYRQAPGKEREFVASISSRGGTTYYADSVKGRFTISRDNAKNTVYLQMNSLKTEDTAVYYCYAKRRYGPDKYDYWGQGTQVTVSS
- polyreactivity (PSR sort gate): high polyreactivity

Sequence: QVQLVESGGGLVQAGGSLRLSCAASGSIFPVYAMGWYRQAPGKERELVAAINSSGGTTYYADSVKGRFSNSRDNAKNTVYLQMNSLKPEDTAVYYCAAEICTSSYLAKTYDYWGQGTQVTVSS
- polyreactivity (PSR sort gate): low polyreactivity

Sequence: QVQLVESGGGLVQAGGSLRLSCSASGFIFVDYAMGWYRQSPGKERELVAAISRSGGSTYYADSVKGRFTISRDNAKNTVYLQMNSLKPEDTAVYYCAAKYPFYAKNGYWGQGTQVTVSS
- polyreactivity (PSR sort gate): high polyreactivity

Sequence: QVQLVESGGGLVQAGGSLRLSCAASGRIFYYNSMGWYRQAPGKERELVASITGSGGSTYYADSVKGRFTISRDNAKNTVYLQMNSLKPEDTAVYYFAKREYLYPFYYVAKYDYWGQGTQVTVSS
- polyreactivity (PSR sort gate): low polyreactivity

Sequence: QVQLVESGGGLDQAGGRLRLSCAASGSIFSIYAMGRYRQAPGKERELVAAISSGGSTYADSVKGRFTISRDNAKNTVYLQMNSLKPEDTAVYYCAADRRGYRGYDYWGQGTQVTVSS
- polyreactivity (PSR sort gate): low polyreactivity

Sequence: QVQLVESGGGLVQAGGSLRLICAASGRTFILYTMGWYRQAPGKERELVAAITTGGSTSYADSVKGRFTISRDNAKNTVYLQMNSLKPEDTAVYNWAADTVGYSWRWFTWYEMGYWGQGTQVTVSS
- polyreactivity (PSR sort gate): low polyreactivity

Sequence: QVQLVESGGGLVQAGGSLRLICAASGSIFNGYVMGWYRQAPGKERELVAAISSGGRTYYADSVKGRFTISRDNAKNTVYLQMNSLKPEDTAVYYCAADIWYFDYDYWGQGTQVTVSS
- polyreactivity (PSR sort gate): high polyreactivity

Sequence: QVQLVESGGGLVQAGGSLRLSCAASGLIFVWYAMGWYRQAPGKERELVAAISWSGGSTYYADSVKGRFTISRDNAKTTVYLQMNSLKPEDTAVYYCATDPFGYSYLLVDYNYWGQGTQVTVSS
- polyreactivity (PSR sort gate): low polyreactivity

Sequence: QVQLVESGGGLVQAGGSLRLSCAASGRSFKKYAMGWYRQAPGKERELVAAITASGGSTYYADSVKGRYTISRDNAKNTVYLQMNSLTPEDTAVYYCAAYAYGVWHSQDGGNYWGQGTQVTVSS
- polyreactivity (PSR sort gate): low polyreactivity

Sequence: QVQLVESGGGLVQAGGSLRLSCAASGGTFYRYAMGWYRQAPGNERELVAAISSSGGRTYYADSVKGRFTISRDNAKNTVYVQMNSLKPEDTAVYYCNARYPRLHRTYNYWGQGTQVTVSS
- polyreactivity (PSR sort gate): high polyreactivity

Sequence: QVQLVESGGGLVQAGGSLRLSCAASGAILYGNAMGWYRQAPGKERELVAAISYSGGRTYYADSVKGRFTISRDNAKYTVYLQMNSLKPEDTAVYYCASLHSGRVQNFDYWGQGTQVTVSS
- polyreactivity (PSR sort gate): high polyreactivity

Sequence: QVQLVESGGGLVQAGGSLRLSCAASGSIFIANAMGWYRQAPGKERELFAAITLNGGSTYYADSVKGRFTISRDNAKNTVYLQMNSLKPEDTAVYYCAADWVWVAPQYWIVEYDYRGQGTQVTVSS
- polyreactivity (PSR sort gate): low polyreactivity

Sequence: QVQLVESGGGLVQAGGSLRLSCAASGSIFKYYAMGWYRQAPGKERELVAAISSGGSTKYADSVKGRFTISRDNAKNTVYLQMNSLKPEDTAVYYCAARDPSRHARRAYDYWGEGTQVTVSS
- polyreactivity (PSR sort gate): low polyreactivity

Sequence: QVQLVESGGGLVQAGGSLRLSCAASGLIFSRYTMGWYRQAPGKERELVAAISLGGGRTYYADSVKGRFTISRDNAKNTVYLQMNSLKPEDTAVYYCAATRYYSSDYWGQGTQVTVSS
- polyreactivity (PSR sort gate): low polyreactivity

Sequence: QVQLVESGGGLVQAGGSLRLSCAASGRIFWDNAMGWYRQAPGKERELVAAISDSVVITYYADSVKGRFTISRDNAKNTVYLQMNSLKPEDTAVYYCAADKRGTVYLSSFWMDYWGQGTQVTVSS
- polyreactivity (PSR sort gate): low polyreactivity

Sequence: QVQLVESGGGLVQAGGSLRLSCAASGLIFYDNMGWYRQAPGKERELVAAISSSGGSTSYADSVKGRFTISRDNAKNTVYLQMNSLKPEDTAVYFCAADSYPAYLGFVGFDYWGQGTQVTVSS
- polyreactivity (PSR sort gate): low polyreactivity

Sequence: QVQLVESGGGLVQAGGSLRLSCAASGRTFYVYAMGWYRQAPGKERELVAAITFSGGSTYYADSVKGRFTISRDNAKNPVYLQMNSLKPEDTAVYYCNRRSYVPDRFRHDSSVIYDYWGQGTQVTVSS
- polyreactivity (PSR sort gate): low polyreactivity

Sequence: QVQLVESGGGLVQAGGSLRLICAASGRTFRVYAMGWYRQAPGKERELVASISRRGASTYYADSVKGRFTISRDIAKNTVYLQMNSLKPEDTAVYYCAADRRYYSVSPNTEFEYWGQGTQETVSS
- polyreactivity (PSR sort gate): high polyreactivity

Sequence: QVQLVESGGGLVQAGGSLRLSCAASGSIFRRTTQGGYRQAPGKERELVAAITYRGGSTYYADSVKGRFTISRDNAKNTVYFQMHSLKPEDTAVYYCARYHWYYPVSKSDSWGQGTQVTVSS
- polyreactivity (PSR sort gate): high polyreactivity

Sequence: QVQLVESGGGKVQAGGSLSLSCAASGSTFVVNAMGWYRQAPGKERELVAAIDGSDGSTYYADSEKGRFTISRDNAKNTVYLQMNSLKPEDTAVYYCAAEVLGRPDVENDYWGQGTKVTVSS
- polyreactivity (PSR sort gate): low polyreactivity

Sequence: QVQLVESGGGLVQAGGSLRLSCAASGFTISANTMGCYSQAPGKERELGATISGGSSTNYADSVKGRFTISRDNAKNTVYLQMNSLKPDDTAVYYCAKDGGLRKFDYWGQGTQVTVSS
- polyreactivity (PSR sort gate): high polyreactivity

Sequence: QVQLVESGGGLVQAGGSLRLSCAASGSIFPGYARGWYRQAPGKERELVATITWSGGSTYYADSVKGRFTISRDNAKNTVYLQMNILIPEDTAVYYCNADSNWYYQWNYYGLYDYWGQGNQVTVSS
- polyreactivity (PSR sort gate): low polyreactivity

Sequence: QVQLVESGGGLVQAGGSLRLSCAASGRTFRQYAMGWYRQAPGKERELVAAIRTNGGRTYYADSVKGRFTISRDNAKNTVYLQMNSLKPEDTAVYYCAVYAVVQGVLFDYWGQGTQVTVSS
- polyreactivity (PSR sort gate): high polyreactivity

Sequence: QVQLVESGGGLVQSGGSLRLSCAASGSTFNGYAMGWYRQAPGKERELVAGITGSGGSTYYADSVKGRFTISRDNAKNTVYLQMNSLKPEDTAVYYCKAVHWGGSYWGLDYWGQGTQVTVSS
- polyreactivity (PSR sort gate): low polyreactivity

Sequence: QVQLVESGGGLVQAGGSLRLSCAASGFISPGYAMGWYRQAPGKERELVAAISVNGGDTYYADSVKGRFTISRDNAKNTVYLQMYSLKPEDTAVYYCAAERGVDDSARYGDYDYWGQGTQVTVSS
- polyreactivity (PSR sort gate): low polyreactivity

Sequence: QVQLVESGGGLVQAGGSLRSSCAASGGTFYGYAMGWYRQAPGKERELVAAISFSGGRTYYADSVKGSFTISRDNAKNTVYLQMNSLKPEDTAVYYCAALRRYPRPNIYGYWGQGTQVTVSS
- polyreactivity (PSR sort gate): low polyreactivity

Sequence: QVQLVESGGGLVQEGGSLRLSCAASGFIFYRYTKGWYRQAPGKERELVAGISSRGTRTYYADSVKGRFTISRDNAKNTVYLQMNSLKPEDNAVYYCAKVDGSKRYNYWGQGTQVTVSS
- polyreactivity (PSR sort gate): high polyreactivity

Sequence: QVQLVESGGGLVQAGGSLRLSSAASGSTFWFNAMGWYRQAPVKERELVAGISERGGRTYYADSVKGRFTISRDNAKNTVYLQMNRLKPEDPAVYYSNAGISPRRTTYYKYDYWGQGTQVNVSS
- polyreactivity (PSR sort gate): high polyreactivity

Sequence: QVQLVESGGGLVQAGGRLRFSCAASGSTFRPNAMGWYRQAPGNERELVAAITRPGGSTFYADSVKGRFTISRDYAKHTVYLQMNSLKPEDTAVYYCATRQRVDLAPLARYGYWGQGTQVTVSS
- polyreactivity (PSR sort gate): low polyreactivity

Sequence: QVQLVESGGGLVQAGGSLRLSCAASGRIFSTYVMGWYRQAPGKERELVAAITWSGGSTYYADSVKGRFTISRDNEKNTVYLQMNSLKPEDTAVYYCAADEIYGYDYWGQGTQVTVSS
- polyreactivity (PSR sort gate): high polyreactivity

Sequence: QVQLVESGGGLVQAGGSLRLSCAASGSIFVIYAMGWYRQAPGKERELVAAITWNGGSTFYADSVKGRFTISRDNAKNTVYLQMNSLKPEDTAVYYCNAVAVSNSGWEYDYWGQGTQVTVSS
- polyreactivity (PSR sort gate): low polyreactivity

Sequence: QVQLAESGGGLVQAGGSLRLSCAASGSTFVSYAMGWYRQAPGKERELVAAIDWSGGNTDYADSVKGRFTISRDNAKNTVYLQMNSLKPEDTAVYYCNADSWPRRGYDYWGQGTQVTVSS
- polyreactivity (PSR sort gate): low polyreactivity

Sequence: QVQLEESGGGLVQAGGSLRLSCAASGSIFGAYALGWYRQAPGKERELVAAISSSVDRTYYADSVKGRFTISRDNAKNTVYLQMNSLKPEDTAVYYCAARWGTRDRTKYYYWGQGTQVTVSS
- polyreactivity (PSR sort gate): high polyreactivity

Sequence: QVQLLESGGRLVQAGGSLRLSCAASGSTYNQYDMGWYRQAPGKERELVAAISTNGGRTYYADSVKGRFTISRDNAKNTVYLLMNSLKPEYTAVYYCNRAGRGRWSNMDHWGQGTQVTVSS
- polyreactivity (PSR sort gate): high polyreactivity

Sequence: QVQLVESGGGLVQAGGSLRLICAASGFIFFINDMGWYRQAPGKEREWVAAISWSGGSTYYADSVKGRFTISRDNEKNNFYIQMNSLKAEETAGYYFKTDVPTAQYDYWGQGTQVTVSS
- polyreactivity (PSR sort gate): low polyreactivity

Source: the nanobody polyreactivity screen of Harvey et al. (2022)
